Changes are numbered by the printed parent chain. Like-named read-outs stand apart in the source and are kept apart here. One block for each binder: values may come before it.
Legend:
[1] = biological target: T1, Peptide no. 44 (Figure 8A); test: Ala-scan peptide array of hIL20 74-96 on cellulose; fluorescein-labelled antibody; fluorescence as OD
T1 construct: Ala-scan peptide on the array; also called Peptide no; D78A
T1 peptide: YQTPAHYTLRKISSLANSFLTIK
Experimental: (§1) The screenings were done using fluorescence labelled antibodies. The labelling was done by gel-filtering the antibody stock against 1% NaHCO3, using NAP5 column (GE Healthcare according the manual from manufacturer. This was followed by adding 25 mole equivalents of 5(6)-carboxyfluorescein N-hydroxysuccinimide ester (Sigma, C1609) dissolved in DMSO. The coupling was allowed to continue for 2 hours followed by a gelfiltration against TRIS washing buffer (50 mM TRIS, pH=7.4, 0.15M NaCl, 0.1 M ArgHCl, 0.05% Tween 20) in order to removed uncoupled fluorescein.
(§2) Screening of arrays were done by adding 10 μl of antibody to 30 ml incubation buffer (0.5% BSA, 50 mM TRIS, pH=7.4, 0.15M NaCl, 0.1 M ArgHCl, 0.05% Tween 20). The sheets were incubated for 1-2 hours, followed by washing five times with washing buffer. […] The fluorescence intensity were measured and transformed into digits that were exported to Prism 5 (Graph Pad Software, USA) for further analysis.

[2] = biological target: T2, Peptide no. 61 (Figure 8A); test: as above
T2 construct: Ala-scan peptide on the array; also called Peptide no; K96A
T2 peptide: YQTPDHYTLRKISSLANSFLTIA
Experimental: as §1, §2

[3] = biological target: T3, Peptide no. 43 (Figure 8A); test: as above
T3 construct: Ala-scan peptide on the array; also called Peptide no; P77A
T3 peptide: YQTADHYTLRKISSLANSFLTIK
Experimental: as §1, §2

[4] = biological target: T4, Peptide no. 53 (Figure 8A); test: as above
T4 construct: Ala-scan peptide on the array; also called Peptide no; S87A
T4 peptide: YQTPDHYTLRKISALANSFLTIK
Experimental: as §1, §2

[5] = biological target: T5, Peptide no. 54 (Figure 8A); test: as above
T5 construct: Ala-scan peptide on the array; also called Peptide no; L88A
T5 peptide: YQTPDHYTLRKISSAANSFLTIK
Experimental: as §1, §2

[6] = biological target: T6, Peptide no. 48 (Figure 8A); test: as above
T6 construct: Ala-scan peptide on the array; also called Peptide no; L82A
T6 peptide: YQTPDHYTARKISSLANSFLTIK
Experimental: as §1, §2

[7] = biological target: T7, Peptide no. 46 (Figure 8A); test: as above
T7 construct: Ala-scan peptide on the array; also called Peptide no; Y80A
T7 peptide: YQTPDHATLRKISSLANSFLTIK
Experimental: as §1, §2

[8] = biological target: T8, Peptide no. 50 (Figure 8A); test: as above
T8 construct: Ala-scan peptide on the array; also called Peptide no; K84A
T8 peptide: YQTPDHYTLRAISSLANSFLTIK
Experimental: as §1, §2

[9] = biological target: T9, Peptide no. 42 (Figure 8A); test: as above
T9 construct: Ala-scan peptide on the array; also called Peptide no; T76A
T9 peptide: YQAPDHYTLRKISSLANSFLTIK
Experimental: as §1, §2

[10] = biological target: T10, Peptide no. 56 (Figure 8A); test: as above
T10 construct: Ala-scan peptide on the array; also called Peptide no; S91A
T10 peptide: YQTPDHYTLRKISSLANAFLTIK
Experimental: as §1, §2

[11] = biological target: T11, Peptide no. 52 (Figure 8A); test: as above
T11 construct: Ala-scan peptide on the array; also called Peptide no; S86A
T11 peptide: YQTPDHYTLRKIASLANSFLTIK
Experimental: as §1, §2

[12] = biological target: T12, Peptide no. 59 (Figure 8A); test: as above
T12 construct: Ala-scan peptide on the array; also called Peptide no; T94A
T12 peptide: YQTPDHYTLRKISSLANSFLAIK
Experimental: as §1, §2

[13] = biological target: T13, Peptide no. 60 (Figure 8A); test: as above
T13 construct: Ala-scan peptide on the array; also called Peptide no; I95A
T13 peptide: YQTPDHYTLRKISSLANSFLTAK
Experimental: as §1, §2

[14] = biological target: T14, Peptide no. 41 (Figure 8A); test: as above
T14 construct: Ala-scan peptide on the array; also called Peptide no; Q75A
T14 peptide: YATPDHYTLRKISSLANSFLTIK
Experimental: as §1, §2

[15] = biological target: T15, Peptide no. 57 (Figure 8A); test: as above
T15 construct: Ala-scan peptide on the array; also called Peptide no; F92A
T15 peptide: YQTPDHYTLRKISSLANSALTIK
Experimental: as §1, §2

[16] = biological target: T16, Peptide no. 58 (Figure 8A); test: as above
T16 construct: Ala-scan peptide on the array; also called Peptide no; L93A
T16 peptide: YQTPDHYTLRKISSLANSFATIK
Experimental: as §1, §2

[17] = biological target: T17, Peptide no. 47 (Figure 8A); test: as above
T17 construct: Ala-scan peptide on the array; also called Peptide no; T81A
T17 peptide: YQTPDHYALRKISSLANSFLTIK
Experimental: as §1, §2

[18] = biological target: T18, Peptide no. 51 (Figure 8A); test: as above
T18 construct: Ala-scan peptide on the array; also called Peptide no; I85A
T18 peptide: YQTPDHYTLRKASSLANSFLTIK
Experimental: as §1, §2

[19] = biological target: T3, Peptide no. 43 (Figure 8A); test: as above
Experimental: as §1, §2

[20] = biological target: T6, Peptide no. 48 (Figure 8A); test: as above
Experimental: as §1, §2

[21] = biological target: T8, Peptide no. 50 (Figure 8A); test: as above
Experimental: as §1, §2

[22] = biological target: T19, Peptide no. 13 (Figures 7A, 7B) (N-terminus acylated); test: array of terminally truncated, acylated hIL20 peptides on cellulose; fluorescein-labelled antibody; fluorescence as OD
T19 construct: peptide array on cellulose
T19 peptide: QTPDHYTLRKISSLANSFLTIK
Experimental: as §1, §2

binding result [1]: binds
binding result [2]: binds
binding result [3]: binds
binding result [4]: binds
binding result [5]: binds
binding result [6]: binds
binding result [7]: binds
binding result [8]: binds
binding result [9]: binds
binding result [10]: binds
binding result [11]: binds
binding result [12]: binds
binding result [13]: binds
binding result [14]: binds
binding result [15]: binds
binding result [16]: binds
binding result [17]: binds
binding result [18]: binds
B1: human anti-hIL20 monoclonal antibody 15D2 (antibody, V domains shown)
VH: QVQLVQSGAEVKRPGASVKVSCKASGYTFTNDIIHWVRQAPGQRLEWMGWINAGYGNTQYSQNFQDRVSITRDTSASTAYMELISLRSEDTAVYYCAREPLWFGESSPHDYYGMDVWGQGTTVTVSS
VL: AIQLTQSPSSLSASVGDRVTITCRASQGISSALAWYQQKPGKAPKLLIYDASSLESGVPSRFSGSGSGTDFTLTISSLQPEDFATYYCQQFNSYPLTFGGGTKVEIKR
notes: also called 15D2-wt; 15D2 wild-type

binding result [19]: binds
binding result [20]: binds
binding result [21]: binds
binding result [22]: binds
B2: human anti-hIL20 monoclonal antibody 5B7 (antibody, human IgG4, V domains shown)
VH: B1 VH with T30S, N31S, D32H, I34M, Q59K, S69T, S106L
VL: B1 VL
notes: described as human IgG4; also called 5B7-wt
